{
  "source": "paper PMC2675579",
  "about": "“Structure of N-acetylglucosamine-1-phosphate uridyltransferase (GlmU) from Mycobacterium tuberculosis in a cubic space group” (Acta Crystallographica Section F: Structural Biology and …, 2009)",
  "molecular_target": "the molecule itself",
  "assay": "SEC; 26/60 Superdex200 High Load gel-filtration column, 20 mM HEPES pH 7.5, 150 mM NaCl, 1 mM DTT",
  "data": [
    {"protein": "N-acetylglucosamine-1-phosphate uridyltransferase (GlmU) from Mycobacterium tuberculosis (enzyme, GlmU, Mycobacterium tuberculosis, gene Rv1018c (glmU); model built for residues 1-472; also called Rv1018c gene product; M. tuberculosis GlmU) MTFPGDTAVLVLAAGPGTRMRSDTPKVLHTLAGRSMLSHVLHAIAKLAPQRLIVVLGHDHQRIAPLVGELADTLGRTIDVALQDRPLGTGHAVLCGLSALPDDYAGNVVVTSGDTPLLDADTLADLIATHRAVSAAVTVLTTTLDDPFGYGRILRTQDHEVMAIVEQTDATPSQREIREVNAGVYAFDIAALRSALSRLSSNNAQQELYLTDVIAILRSDGQTVHASHVDDSALVAGVNNRVQLAELASELNRRVVAAHQLAGVTVVDPATTWIDVDVTIGRDTVIHPGTQLLGRTQIGGRCVVGPDTTLTDVAVGDGASVVRTHGSSSSIGDGAAVGPFTYLRPGTALGADGKLGAFVEVKNSTIGTGTKVPHLTYVGDADIGEYSNIGASSVFVNYDGTSKRRTTVGSHVRTGSDTMFVAPVTIGDGAYTGAGTVVREDVPPGALAVSAGPQRNIENWVQRKRPGSPAAQASKRASEMACQQPTQPPDADQTP", "values": [
      {"measurement": "stoichiometry N", "value": 3}
    ]}
  ]
}
